The values that follow are results of earlier work, collected in article PMC7465391, “1,4-Disubstituted 1,2,3-Triazoles as Amide Bond Surrogates for the Stabilisation of Linear Peptides with Biological Activity” (Molecules, 2020).

The data set deals with delta opioid receptor (DOPr) (UniProt P41143). The data set can be described thus: radioligand.

Regarding Leu-enkephalin, the Ki was 6.3 nM.
